# In publication doi:10.1101/2024.11.11.622902:
# Where “and” joins values, the source holds several entries; their conditions need not be identical. Equal entries are not always repeated. Where two headings read alike, the source gives them in different places.
# Columns and labels:
# [1] = molecular target: human glyceraldehyde-3-phosphate dehydrogenase (hGAPDH), wild type (human); experiment: SEC
# [2] = molecular target: human glyceraldehyde-3-phosphate dehydrogenase (hGAPDH), wild type (human); experiment: native MS
# [3] = molecular target: human glyceraldehyde-3-phosphate dehydrogenase (hGAPDH), wild type (human); experiment: native MS; remark: listed apart in the source
# [4] = molecular target: human glyceraldehyde-3-phosphate dehydrogenase (hGAPDH), wild type (human); experiment: SEC; remark: listed apart in the source
# [5] = molecular target: porcine glyceraldehyde-3-phosphate dehydrogenase (pGAPDH), wild type (pig (Sus scrofa)); experiment: SEC
# [6] = molecular target: porcine glyceraldehyde-3-phosphate dehydrogenase (pGAPDH), wild type (pig (Sus scrofa)); experiment: SEC; remark: listed apart in the source
# [7] = molecular target: porcine glyceraldehyde-3-phosphate dehydrogenase (pGAPDH), wild type (pig (Sus scrofa)); experiment: SEC; remark: listed apart in the source
# [8] = molecular target: porcine glyceraldehyde-3-phosphate dehydrogenase (pGAPDH), wild type (pig (Sus scrofa)); experiment: SEC; remark: listed apart in the source
# [9] = molecular target: porcine glyceraldehyde-3-phosphate dehydrogenase (pGAPDH), wild type (pig (Sus scrofa)); experiment: SEC; remark: listed apart in the source
# [10] = molecular target: porcine glyceraldehyde-3-phosphate dehydrogenase (pGAPDH), wild type (pig (Sus scrofa)); experiment: SEC; remark: listed apart in the source
# [11] = molecular target: S-nitrosylated human GAPDH (hGAPDH treated with S-nitrosocysteine, CysNO) (human); experiment: native MS
substance,measurement,setting,value
"human glyceraldehyde-3-phosphate dehydrogenase (hGAPDH), wild type (enzyme)",stoichiometry N,[1],4
same,stoichiometry N,[2],4
same,stoichiometry N,[3],4
same,stoichiometry N,[4],4
"porcine glyceraldehyde-3-phosphate dehydrogenase (pGAPDH), wild type (enzyme)",stoichiometry N,[5],4
same,stoichiometry N,[6],4
same,stoichiometry N,[7],4 and 2
same,stoichiometry N,[8],4
same,stoichiometry N,[9],2
same,stoichiometry N,[10],4
"S-nitrosylated human GAPDH (hGAPDH treated with S-nitrosocysteine, CysNO) (enzyme)",stoichiometry N,[11],4
